Laboratory results taken from publication PMC4078008, “Exploring metabolic engineering design principles for the photosynthetic production of lactic acid by Synechocystis sp. PCC6803” (Biotechnology for Biofuels, 2014).

Substrate: CC(=O)C(=O)O
Assay: purified protein
Assay type: biochemical, Bacillus subtilis
Details: 50 mM phosphate pH 6.5, 30 °C, no FBP, co-substrate NADH (general LDH assay)

| Protein | Km [mM] |
| --- | --- |
| L-LDH of B. subtilis (BsLDH) (Bacillus subtilis subsp. subtilis str. 168) (protein, codon-optimized gene, pET28b+ NdeI/HindIII, N-terminal His-tag (removal not mentioned), E. coli BL21(DE3), HisTrap-purified) MNKHVNKVALIGAGFVGSSYAFALINQGITDELVVIDVNKEKAMGDVMDLNHGKAFAPQPVKTSYGTYEDCKDADIVCICAGANQKPGETRLELVEKNLKIFKGIVSEVMASGFDGIFLVATNPVDILTYATWKFSGLPKERVIGSGTTLDSARFRFMLSEYFGAAPQNVHAHIIGEHGDTELPVWSHANVGGVPVSELVEKNDAYKQEELDQIVDDVKNAAYHIIEKKGATYYGVAMSLARITKAILHNENSILTVSTYLDGQYGADDVYIGVPAVVNRGGIAGITELNLNEKEKEQFLHSAGVLKNILKPHFAEQKVN | 4.34 ± 1.24 |
| L-LDH of B. subtilis (BsLDH) (Bacillus subtilis subsp. subtilis str. 168; V38R) (protein, codon-optimized gene, pET28b+ NdeI/HindIII, N-terminal His-tag (removal not mentioned), E. coli BL21(DE3), HisTrap-purified) MNKHVNKVALIGAGFVGSSYAFALINQGITDELVVIDRNKEKAMGDVMDLNHGKAFAPQPVKTSYGTYEDCKDADIVCICAGANQKPGETRLELVEKNLKIFKGIVSEVMASGFDGIFLVATNPVDILTYATWKFSGLPKERVIGSGTTLDSARFRFMLSEYFGAAPQNVHAHIIGEHGDTELPVWSHANVGGVPVSELVEKNDAYKQEELDQIVDDVKNAAYHIIEKKGATYYGVAMSLARITKAILHNENSILTVSTYLDGQYGADDVYIGVPAVVNRGGIAGITELNLNEKEKEQFLHSAGVLKNILKPHFAEQKVN | 4.00 ± 0.50 |
